Measured values: the supplement of paper PMC9112550, “Optimization of the antimicrobial peptide Bac7 by deep mutational scanning” (BMC Biology, 2022)

What follows are sequences tested on Escherichia coli TOP10 (assay: shrunken log2 fold change of peptide-encoding DNA abundance (4.5 h post-induction vs induction); higher = less antimicrobial activity (less host growth inhibition)). Conditions: time post-induction: 4.5 h; library: site-saturation at positions 5, 18, 19, 20.
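Further: peptides expressed intracellularly from a pBAD plasmid library in pooled LB shake-flask culture, induced with 0.3% L-arabinose, DNA abundance read by NGS, three biological replicates, DESeq2 with apeglm shrinkage.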

Question: For RRIRIRPPRLPRPRPRPHTAPRP, which “shrunken log2 fold change” value is on record?
Answer: Its value is 0.055.

Question: How did the “shrunken log2 fold change” value turn out when RRIRIRPPRLPRPRPRPHTWPRP was run?
Answer: Its value is -0.401.

Question: Which “shrunken log2 fold change” value does the source give for RRIRIRPPRLPRPRPRPHVIPRP here?
Answer: The value was -0.0939.

Question: For RRIRIRPPRLPRPRPRPHVSPRP, which “shrunken log2 fold change” value is on record?
Answer: The value was -0.0557.

Question: For RRIRIRPPRLPRPRPRPHVTPRP, which “shrunken log2 fold change” value is on record?
Answer: Its value is -0.132.

Question: For RRIRIRPPRLPRPRPRPHWFPRP, which “shrunken log2 fold change” value is on record?
Answer: The value was 0.022.

Question: How did the “shrunken log2 fold change” value turn out when RRIRIRPPRLPRPRPRPHWWPRP was run?
Answer: The value was 0.133.

Question: For RRIRIRPPRLPRPRPRPHYIPRP, which “shrunken log2 fold change” value is on record?
Answer: The value was -0.155.

Question: How did the “shrunken log2 fold change” value turn out when RRIRIRPPRLPRPRPRPIATPRP was run?
Answer: Its value is -0.471.

Question: For RRIRIRPPRLPRPRPRPICHPRP, which “shrunken log2 fold change” value is on record?
Answer: Its value is -0.326.

Question: How did the “shrunken log2 fold change” value turn out when RRIRIRPPRLPRPRPRPICYPRP was run?
Answer: The value was -0.325.

Question: For RRIRIRPPRLPRPRPRPIDGPRP, which “shrunken log2 fold change” value is on record?
Answer: The value was -0.248.

Question: RRIRIRPPRLPRPRPRPIDPPRP was tested. Which “shrunken log2 fold change” value did it give?
Answer: Its value is -0.142.

Question: With RRIRIRPPRLPRPRPRPIEKPRP as the sequence, how does the “shrunken log2 fold change” value read?
Answer: Its value is -0.0304.

Question: RRIRIRPPRLPRPRPRPIETPRP was tested. Which “shrunken log2 fold change” value did it give?
Answer: The value was -0.0467.

Question: For RRIRIRPPRLPRPRPRPIHCPRP, which “shrunken log2 fold change” value is on record?
Answer: Its value is -0.00133.

Question: With RRIRIRPPRLPRPRPRPIIIPRP as the sequence, how does the “shrunken log2 fold change” value read?
Answer: The value was -0.598.

Question: For RRIRIRPPRLPRPRPRPIKWPRP, which “shrunken log2 fold change” value is on record?
Answer: The value was -0.118.

Question: Which “shrunken log2 fold change” value does the source give for RRIRIRPPRLPRPRPRPILGPRP here?
Answer: The value was -0.0266.

Question: With RRIRIRPPRLPRPRPRPILQPRP as the sequence, how does the “shrunken log2 fold change” value read?
Answer: Its value is -0.146.

Question: For RRIRIRPPRLPRPRPRPIMKPRP, which “shrunken log2 fold change” value is on record?
Answer: Its value is -0.227.

Question: How did the “shrunken log2 fold change” value turn out when RRIRIRPPRLPRPRPRPIMTPRP was run?
Answer: The value was -0.26.

Question: For RRIRIRPPRLPRPRPRPIQQPRP, which “shrunken log2 fold change” value is on record?
Answer: Its value is -0.0134.

Question: RRIRIRPPRLPRPRPRPIQTPRP was tested. Which “shrunken log2 fold change” value did it give?
Answer: Its value is -0.0155.

Question: RRIRIRPPRLPRPRPRPIRCPRP was tested. Which “shrunken log2 fold change” value did it give?
Answer: The value was 0.0793.

Question: How did the “shrunken log2 fold change” value turn out when RRIRIRPPRLPRPRPRPISWPRP was run?
Answer: The value was -0.392.

Question: RRIRIRPPRLPRPRPRPITCPRP was tested. Which “shrunken log2 fold change” value did it give?
Answer: The value was -0.378.

Question: With RRIRIRPPRLPRPRPRPITGPRP as the sequence, how does the “shrunken log2 fold change” value read?
Answer: Its value is -0.0492.

Question: Which “shrunken log2 fold change” value does the source give for RRIRIRPPRLPRPRPRPIYHPRP here?
Answer: The value was -0.622.

Question: Which “shrunken log2 fold change” value does the source give for RRIRIRPPRLPRPRPRPKATPRP here?
Answer: The value was -0.141.

Question: With RRIRIRPPRLPRPRPRPKCTPRP as the sequence, how does the “shrunken log2 fold change” value read?
Answer: The value was -0.233.

Question: Which “shrunken log2 fold change” value does the source give for RRIRIRPPRLPRPRPRPKDQPRP here?
Answer: The value was -0.196.

Question: With RRIRIRPPRLPRPRPRPKEKPRP as the sequence, how does the “shrunken log2 fold change” value read?
Answer: The value was 0.00643.

Question: Which “shrunken log2 fold change” value does the source give for RRIRIRPPRLPRPRPRPKFDPRP here?
Answer: The value was -0.18.

Question: How did the “shrunken log2 fold change” value turn out when RRIRIRPPRLPRPRPRPKGFPRP was run?
Answer: Its value is 0.0347.

Question: Which “shrunken log2 fold change” value does the source give for RRIRIRPPRLPRPRPRPKGKPRP here?
Answer: Its value is -0.162.

Question: RRIRIRPPRLPRPRPRPKGNPRP was tested. Which “shrunken log2 fold change” value did it give?
Answer: The value was -0.459.

Question: RRIRIRPPRLPRPRPRPKHKPRP was tested. Which “shrunken log2 fold change” value did it give?
Answer: Its value is -0.508.

Question: Which “shrunken log2 fold change” value does the source give for RRIRIRPPRLPRPRPRPKMAPRP here?
Answer: The value was -0.179.

Question: Which “shrunken log2 fold change” value does the source give for RRIRIRPPRLPRPRPRPKNRPRP here?
Answer: Its value is -0.26.

Question: Which “shrunken log2 fold change” value does the source give for RRIRIRPPRLPRPRPRPKNVPRP here?
Answer: The value was -0.139.

Question: How did the “shrunken log2 fold change” value turn out when RRIRIRPPRLPRPRPRPKRNPRP was run?
Answer: Its value is -0.0625.

Question: With RRIRIRPPRLPRPRPRPKSIPRP as the sequence, how does the “shrunken log2 fold change” value read?
Answer: Its value is -0.14.

Question: Which “shrunken log2 fold change” value does the source give for RRIRIRPPRLPRPRPRPKSVPRP here?
Answer: Its value is -0.0925.

Question: How did the “shrunken log2 fold change” value turn out when RRIRIRPPRLPRPRPRPKVPPRP was run?
Answer: Its value is 0.167.

Question: RRIRIRPPRLPRPRPRPKVYPRP was tested. Which “shrunken log2 fold change” value did it give?
Answer: The value was -0.394.

Question: RRIRIRPPRLPRPRPRPKWDPRP was tested. Which “shrunken log2 fold change” value did it give?
Answer: The value was -0.13.

Question: How did the “shrunken log2 fold change” value turn out when RRIRIRPPRLPRPRPRPKWLPRP was run?
Answer: Its value is 0.0546.

Question: RRIRIRPPRLPRPRPRPKYEPRP was tested. Which “shrunken log2 fold change” value did it give?
Answer: Its value is -0.83.

Question: RRIRIRPPRLPRPRPRPKYHPRP was tested. Which “shrunken log2 fold change” value did it give?
Answer: The value was -0.532.

Question: With RRIRIRPPRLPRPRPRPLAEPRP as the sequence, how does the “shrunken log2 fold change” value read?
Answer: Its value is -0.129.

Question: With RRIRIRPPRLPRPRPRPLCRPRP as the sequence, how does the “shrunken log2 fold change” value read?
Answer: Its value is -0.289.

Question: Which “shrunken log2 fold change” value does the source give for RRIRIRPPRLPRPRPRPLDGPRP here?
Answer: The value was 0.0631.

Question: For RRIRIRPPRLPRPRPRPLDPPRP, which “shrunken log2 fold change” value is on record?
Answer: Its value is -0.0309.

Question: Which “shrunken log2 fold change” value does the source give for RRIRIRPPRLPRPRPRPLEQPRP here?
Answer: The value was -0.419.

Question: How did the “shrunken log2 fold change” value turn out when RRIRIRPPRLPRPRPRPLERPRP was run?
Answer: Its value is 0.0105.

Question: How did the “shrunken log2 fold change” value turn out when RRIRIRPPRLPRPRPRPLFPPRP was run?
Answer: The value was -0.42.

Question: For RRIRIRPPRLPRPRPRPLGKPRP, which “shrunken log2 fold change” value is on record?
Answer: The value was -0.248.

Question: Which “shrunken log2 fold change” value does the source give for RRIRIRPPRLPRPRPRPLGRPRP here?
Answer: The value was 0.39.

Question: With RRIRIRPPRLPRPRPRPLGVPRP as the sequence, how does the “shrunken log2 fold change” value read?
Answer: The value was -0.0767.

Question: With RRIRIRPPRLPRPRPRPLGWPRP as the sequence, how does the “shrunken log2 fold change” value read?
Answer: The value was 0.339.

Question: RRIRIRPPRLPRPRPRPLHWPRP was tested. Which “shrunken log2 fold change” value did it give?
Answer: Its value is -0.138.

Question: How did the “shrunken log2 fold change” value turn out when RRIRIRPPRLPRPRPRPLIGPRP was run?
Answer: The value was -0.0888.

Question: With RRIRIRPPRLPRPRPRPLINPRP as the sequence, how does the “shrunken log2 fold change” value read?
Answer: Its value is -0.444.

Question: For RRIRIRPPRLPRPRPRPLLTPRP, which “shrunken log2 fold change” value is on record?
Answer: The value was -0.156.

Question: For RRIRIRPPRLPRPRPRPLNRPRP, which “shrunken log2 fold change” value is on record?
Answer: Its value is -0.476.

Question: Which “shrunken log2 fold change” value does the source give for RRIRIRPPRLPRPRPRPLNVPRP here?
Answer: The value was -1.23.

Question: How did the “shrunken log2 fold change” value turn out when RRIRIRPPRLPRPRPRPLNWPRP was run?
Answer: The value was -0.291.

Question: Which “shrunken log2 fold change” value does the source give for RRIRIRPPRLPRPRPRPLQRPRP here?
Answer: Its value is -0.106.

Question: Which “shrunken log2 fold change” value does the source give for RRIRIRPPRLPRPRPRPLRKPRP here?
Answer: Its value is 0.00781.

Question: Which “shrunken log2 fold change” value does the source give for RRIRIRPPRLPRPRPRPLSFPRP here?
Answer: The value was -0.687.

Question: How did the “shrunken log2 fold change” value turn out when RRIRIRPPRLPRPRPRPLSNPRP was run?
Answer: Its value is -0.893.

Question: For RRIRIRPPRLPRPRPRPLSYPRP, which “shrunken log2 fold change” value is on record?
Answer: Its value is -0.528.

Question: How did the “shrunken log2 fold change” value turn out when RRIRIRPPRLPRPRPRPLTSPRP was run?
Answer: The value was -0.188.

Question: For RRIRIRPPRLPRPRPRPLVEPRP, which “shrunken log2 fold change” value is on record?
Answer: Its value is -0.0936.
